From patent publication CN115125236A (YEASEN BIOLOGICAL TECH SHANGHAI CO LTD, dated 2022)

B1: Benzonase单克隆抗体scFv4 (scFv)
scFv: QLMESGGGLVQPGASLTLTCTASGFSFSSNYWICWVRQAPGKGLEWIGCIYTGTSGTTYYASWAKGRFTISETSSTTVTLQMTSLTAADTATYFCSKNTYGYALAARLDLWGQGTLVTISSGGGGSGGGGSGGGGSDMTQTPASVEVAVGGTVTIKCQASQSIGSDLAWYQQKLGQPPKLLIYYASTLESGAPARFSGSGSGTEYTLTITDVQCDDAATYYCAGDYSSGNDNGFGGGTEVVVKA
B2: Benzonase单克隆抗体scFv1 (scFv)
scFv: QLVESGGGLVTPGTPLTLTCTASGFSLSSYWMSWVRQAPGKGLEWIGVISSSGSTDYASWAKGRFTISKTSTTVDLKITSLTTEDTAIYFCARYSSDWNAYDLWGQGTLVTISSGGGGSGGGGSGGGGSVLTQTPSPVSAAVGGTVTISCQASQSVYGNNYLSWFQQKPGQPPKLLIYQASTLASGVPSRFSGSGSGTQFSLTISGVQCDDAATYYCAGWSGSGTDAVAFGGGTELEILGRSGP
B3: Benzonase单克隆抗体scFv3 (scFv)
scFv: QLVESGGRLVTPGTPLTLTCTASGFALSGYYMTWVRQAPGKGLEWIGITHPSGSTYYASWVKGRFTISKASTTVDLRITSPTTEDTATYFCARVWTHYSSGGGDLWGPGTLVTISSGGGGSGGGGSGGGGSDLTQTPSSVSAAVGGTVTINCQSSESVYKNNDLSWYQQKPGQPPKLLISAASTLASGVPSRFKGSGSGTQFTLTISGVQCDDAATYYCQQGYSGDNVVNTFGGGTEVVVK
B4: Benzonase单克隆抗体scFv5 (scFv)
scFv: QLMESGGGLVTPGGTLTLTCTASGFSLSNYWMSWVRQAPGKGLEWIGIISNYGSTYYASWAKGRFTISKTSTTVDLRITSPTIEDTATYFCAREFAGVFNLWGPGTLVTVSSGGGGSGGGGSGGGGSDMTQTPASVSEPVGGTVTINCQASQSVYNNKNLAWYQQKPGQPPKVLIYKASTLASGVSSRFKGSGSGTEFTLTISDLECADAATYYCQQGHDTNVQNLFGGGTEVVVKAAAGA
B5: Benzonase单克隆抗体scFv6 (scFv)
scFv: QLVESGGDLVKPGASLTLTCTASGFTLSSYWMCWVRQAPGKGLEWIGCIDTGSSDSTYYANWAKGRFTISKASSTTVTLQMTSVTPADTATYFCARHLRYSTNNNDWDLWGPGTLVTVSSGGGGSGGGGSGGGGSDLTQTPASVEAAVGDTVTIKCQASQSIYNYLAWYQQKPGQPPKVLIYAASNLASGVPSRFSGSGSGTQFTLTISGVQCDDAATYYCAGAYSTYGDNGFGGGTEVVVKA

Molecular target: T1, Benzonase (粘质沙雷氏菌 (Serratia marcescens), UniProt P13717 22-266)
T1 construct: Coated on the plate in the ELISA and used as the sample in the sandwich ELISA; also called 全能核酸酶; Benzonase蛋白
T1 sequence (looked up): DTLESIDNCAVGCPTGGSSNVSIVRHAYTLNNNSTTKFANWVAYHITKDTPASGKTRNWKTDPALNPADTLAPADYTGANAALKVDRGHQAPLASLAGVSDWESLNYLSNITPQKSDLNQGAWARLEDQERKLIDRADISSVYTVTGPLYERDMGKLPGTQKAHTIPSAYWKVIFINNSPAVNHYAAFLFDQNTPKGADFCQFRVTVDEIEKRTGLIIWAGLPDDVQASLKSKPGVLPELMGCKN
Test: sandwich ELISA, biotin-scFv4 as detection on Benzonase captured by scFv3, HRP-streptavidin

Binder | binding result
B1 | binds

Molecular target: T1, Benzonase
Test: ELISA, Benzonase coated, scFv from 1 μg/ml in twofold dilutions, HRP anti-flag-tag detection

Binder | binding result
B2 | binds
B3 | binds
B4 | binds
B5 | binds

Molecular target: T2, 牛血清白蛋白 (牛 (bovine, by its name), UniProt P02769 25-607)
T2 construct: also called BSA
Test: ELISA, BSA coated and blocked as control, HRP anti-flag-tag detection

T2 sequence (P02769 25-607 limits assumed): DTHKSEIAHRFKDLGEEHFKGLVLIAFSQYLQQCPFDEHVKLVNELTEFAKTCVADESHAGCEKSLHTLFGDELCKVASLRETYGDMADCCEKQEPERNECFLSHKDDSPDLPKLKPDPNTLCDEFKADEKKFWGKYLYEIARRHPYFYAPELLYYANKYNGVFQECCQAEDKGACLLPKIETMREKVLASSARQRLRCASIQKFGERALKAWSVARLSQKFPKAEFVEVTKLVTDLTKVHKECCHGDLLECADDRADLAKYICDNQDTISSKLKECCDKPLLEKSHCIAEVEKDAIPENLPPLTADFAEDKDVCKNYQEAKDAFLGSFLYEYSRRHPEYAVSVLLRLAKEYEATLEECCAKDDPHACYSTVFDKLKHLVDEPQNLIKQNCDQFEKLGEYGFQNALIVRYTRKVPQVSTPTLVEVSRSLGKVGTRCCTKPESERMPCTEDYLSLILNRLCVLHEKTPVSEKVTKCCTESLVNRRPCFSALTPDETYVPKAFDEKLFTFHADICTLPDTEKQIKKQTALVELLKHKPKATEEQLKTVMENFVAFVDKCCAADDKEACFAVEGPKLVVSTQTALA

Binder | binding result
B2 | no binding (tested: 1μg/ml后二倍梯度稀释)
B1 | no binding (tested: 1μg/ml后二倍梯度稀释)
B3 | no binding (tested: 1μg/ml后二倍梯度稀释)
B4 | no binding (tested: 1μg/ml后二倍梯度稀释)
B5 | no binding (tested: 1μg/ml后二倍梯度稀释)
